Experimental data: the supplement of paper PMC10567573

B1: C10orf62 (parent)
chain: RALEEVEMKLQKNFLTQRENTIAG

Variants of: B1
Test: protein stability index of a GFP-peptide fusion (GPS, HEK-293T) (PSI 1-6); higher = more stable
Settings: c terminus: a fixed tail appended
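Further: lentivirally expressed fusions sorted by FACS into six bins by GFP to DsRed ratio, PSI derived from sequencing read proportions per bin multiplied by bin number.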

| Variant | protein stability index |
| --- | --- |
| RALEEVEMKLQKNELTQRENTIAG [F14E] | 4.61 |
| RALEEVEMKLQKNDLTQRENTIAG [F14D] | 4.66 |
| RALEEVEMKLQKNGLTQRENTIAG [F14G] | 4.11 |
| RALEEVEMKLQKNHLTQRENTIAG [F14H] | 4.47 |
| RALEEVEMKLQKNALTQRENTIAG [F14A] | 4.72 |
| RALEEVEMKLQKNILTQRENTIAG [F14I] | 3.86 |
| RALEEVEMKLQKNTLTQRENTIAG [F14T] | 4.11 |
| RALEEVEMKLQKNMLTQRENTIAG [F14M] | 3.82 |
| RALEEVEMKLQKNPLTQRENTIAG [F14P] | 4.66 |
| RALEEVEMKLQKNWLTQRENTIAG [F14W] | 3.61 |
| RALEEVEMKLQKNSLTQRENTIAG [F14S] | 4.37 |
| RALEEVEMKLQKNQLTQRENTIAG [F14Q] | 4.45 |
| RALEEVEMKLQKNKLTQRENTIAG [F14K] | 4.11 |
| RALEEVEMKLQKNLLTQRENTIAG [F14L] | 4.64 |
| RALEEVEMKLQKNVLTQRENTIAG [F14V] | 3.97 |
| RALEEVEMKLQKNRLTQRENTIAG [F14R] | 4.33 |
| RALEEVEMKLQKNNLTQRENTIAG [F14N] | 4.49 |
| RALEEVEMKLQKNCLTQRENTIAG [F14C] | 4.29 |
| RALEEVEMKLQKNYLTQRENTIAG [F14Y] | 3.69 |
| RALEEVEMKLQKDFLTQRENTIAG [N13D] | 3.89 |
| RALEEVEMKLQKTFLTQRENTIAG [N13T] | 3.31 |
| RALEEVEMKLQKMFLTQRENTIAG [N13M] | 3.02 |
| RALEEVEMKLQKRFLTQRENTIAG [N13R] | 3.42 |
| RALEEVEMKLQKLFLTQRENTIAG [N13L] | 2.86 |

| Variant | protein stability index |
| --- | --- |
| RALEEVEMKLQKHFLTQRENTIAG [N13H] | 2.72 |
| RALEEVEMKLQKAFLTQRENTIAG [N13A] | 2.58 |
| RALEEVEMKLQKWFLTQRENTIAG [N13W] | 1.36 |
| RALEEVEMKLQKIFLTQRENTIAG [N13I] | 1.76 |
| RALEEVEMKLQKVFLTQRENTIAG [N13V] | 3 |
| RALEEVEMKLQKKFLTQRENTIAG [N13K] | 3.3 |
| RALEEVEMKLQKYFLTQRENTIAG [N13Y] | 2.62 |
| RALEEVEMKLQKPFLTQRENTIAG [N13P] | 3.96 |
| RALEEVEMKLQKGFLTQRENTIAG [N13G] | 3.15 |
| RALEEVEMKLQKSFLTQRENTIAG [N13S] | 3.52 |
| RALEEVEMKLQKEFLTQRENTIAG [N13E] | 3.92 |
| RALEEVEMKLQKCFLTQRENTIAG [N13C] | 3.23 |
| RALEEVEMKLQKQFLTQRENTIAG [N13Q] | 3.4 |
| RALEEVEMKLQKFFLTQRENTIAG [N13F] | 2.23 |
| RALEEVEMKLQKNFLTQEENTIAG [R18E] | 4.29 |
| RALEEVEMKLQKNFLTQMENTIAG [R18M] | 3.12 |
| RALEEVEMKLQKNFLTQKENTIAG [R18K] | 3.74 |
| RALEEVEMKLQKNFLTQWENTIAG [R18W] | 2.47 |
| RALEEVEMKLQKNFLTQSENTIAG [R18S] | 4.18 |
| RALEEVEMKLQKNFLTQAENTIAG [R18A] | 3.19 |
| RALEEVEMKLQKNFLTQCENTIAG [R18C] | 2.91 |
| RALEEVEMKLQKNFLTQQENTIAG [R18Q] | 3.85 |
| RALEEVEMKLQKNFLTQDENTIAG [R18D] | 4.59 |
| RALEEVEMKLQKNFLTQFENTIAG [R18F] | 2.53 |

| Variant | protein stability index |
| --- | --- |
| RALEEVEMKLQKNFLTQPENTIAG [R18P] | 3.72 |
| RALEEVEMKLQKNFLTQHENTIAG [R18H] | 3.96 |
| RALEEVEMKLQKNFLTQGENTIAG [R18G] | 3.73 |
| RALEEVEMKLQKNFLTQYENTIAG [R18Y] | 2.64 |
| RALEEVEMKLQKNFLTQNENTIAG [R18N] | 4.05 |
| RALEEVEMKLQKNFLTQIENTIAG [R18I] | 3.09 |
| RALEEVEMKLQKNFLTQTENTIAG [R18T] | 3.46 |
| RALEEVEMKLQKNFLTQVENTIAG [R18V] | 2.35 |
| RALEEVEMKLQKNFLTQLENTIAG [R18L] | 2.08 |
| RALEEVEMKNQKNFLTQRENTIAG [L10N] | 4.25 |
| RALEEVEMKMQKNFLTQRENTIAG [L10M] | 3.75 |
| RALEEVEMKPQKNFLTQRENTIAG [L10P] | 4.4 |
| RALEEVEMKWQKNFLTQRENTIAG [L10W] | 2.88 |
| RALEEVEMKTQKNFLTQRENTIAG [L10T] | 4.4 |
| RALEEVEMKIQKNFLTQRENTIAG [L10I] | 3.5 |
| RALEEVEMKAQKNFLTQRENTIAG [L10A] | 4.13 |
| RALEEVEMKFQKNFLTQRENTIAG [L10F] | 3.37 |
| RALEEVEMKGQKNFLTQRENTIAG [L10G] | 4.29 |
| RALEEVEMKSQKNFLTQRENTIAG [L10S] | 4.66 |
| RALEEVEMKVQKNFLTQRENTIAG [L10V] | 4.04 |
| RALEEVEMKEQKNFLTQRENTIAG [L10E] | 5.17 |
| RALEEVEMKHQKNFLTQRENTIAG [L10H] | 4 |
| RALEEVEMKQQKNFLTQRENTIAG [L10Q] | 3.22 |
| RALEEVEMKRQKNFLTQRENTIAG [L10R] | 3.4 |

| Variant | protein stability index |
| --- | --- |
| RALEEVEMKYQKNFLTQRENTIAG [L10Y] | 3.67 |
| RALEEVEMKKQKNFLTQRENTIAG [L10K] | 4.35 |
| RALEEVEMKCQKNFLTQRENTIAG [L10C] | 3.58 |
| RALEEVEMKDQKNFLTQRENTIAG [L10D] | 4.56 |
| RALEEVEMKLQKNFLPQRENTIAG [T16P] | 3.09 |
| RALEEVEMKLQKNFLLQRENTIAG [T16L] | 2.79 |
| RALEEVEMKLQKNFLRQRENTIAG [T16R] | 2.81 |
| RALEEVEMKLQKNFLQQRENTIAG [T16Q] | 3.45 |
| RALEEVEMKLQKNFLFQRENTIAG [T16F] | 3.26 |
| RALEEVEMKLQKNFLEQRENTIAG [T16E] | 3.91 |
| RALEEVEMKLQKNFLWQRENTIAG [T16W] | 2.97 |
| RALEEVEMKLQKNFLCQRENTIAG [T16C] | 3.24 |
| RALEEVEMKLQKNFLDQRENTIAG [T16D] | 4.09 |
| RALEEVEMKLQKNFLYQRENTIAG [T16Y] | 2.74 |
| RALEEVEMKLQKNFLGQRENTIAG [T16G] | 4.06 |
| RALEEVEMKLQKNFLSQRENTIAG [T16S] | 3.64 |
| RALEEVEMKLQKNFLKQRENTIAG [T16K] | 3.54 |
| RALEEVEMKLQKNFLHQRENTIAG [T16H] | 3.44 |
| RALEEVEMKLQKNFLIQRENTIAG [T16I] | 3.06 |
| RALEEVEMKLQKNFLNQRENTIAG [T16N] | 2.83 |
| RALEEVEMKLQKNFLVQRENTIAG [T16V] | 3.16 |
| RALEEVEMKLQKNFLMQRENTIAG [T16M] | 3.23 |
